Assay results as given in the DeepSol protein solubility set.

Experiment: soluble on expression in E. coli; label from the status in PepcDB or PDB records
With “MSLSRPTKFRKVDFFPKSTCFIPLGKPKCEVEEIALKIEELEAIRLKDIKELNQEECAAKMEVSRQTFQNIIDSARKKIAIALTEGNAIAIGGGNFKSKFCKFKCLDCRNTYEINCENDKHMCPSCGSNNIVCNKKTGSCENLCKEGHHHHHH” the “soluble on expression in E. coli” value was “soluble”. In the case of “MSLSTELDFEKPIRDLKGKIEELRTFTEEKEIDLSDEIEKLEKRLHALEENIYGNLKPWQRVQIARHGERPTTLDYIEQLFSDFLEMHGDRLYGDDEAIVAGIAKYKGQPVTVIGHQRGKDTKENIRRNFGMPHPEGYRKALRLMKQAEKFHRPVICFIDTKGAYPGKAAEERGQSEAIARNLLEMAGLKVPIVCIVIGEGGSGGALALGVGDRIHMLENSTYSVISPEGAAALLWKDASQAQRAAETMKITAPDLKELQIIDDIIPEVRGGAHRNVAEQAEAIDQVLEKSLKQLSSLTTEELLNKRYEKYKKIGEFSHVNDAISVNEGHHHHHH”, the “soluble on expression in E. coli” value is reported as “soluble”. For “MSLSTLQDLEKTLWATADKMRANMDPAEYKHIVLGLIFLKYISDSFAGRRAELERKFSDAGDDYYLGGDDPTYLASELEERDYYKEVNVFWVPEPARWESLRAAAKQVDIGKRIDDALADIEAENPQLKNILDKRYARAQLPDGKLGELVDMISIIGFSSDANKARDLLGQVYEYFLGQFASAEGKRGGQFYTPASIVKTLVAVLNPHHGKVYDPCCGSGGMFVQSEKFIEAHGGKLGDVSIYGQESNPTTWRLAAMNLAIRGMDFNLGKEPADSFIRNQHSDLRADFVLANPPFNISDWWHGSLDGDSRWVYGTPPQGNANYAWLQHMLFHLKSSGRAGIVLANGSMSSSQNSEGDIRRAMVEADVVEVMVALPGQLFFNTQIPACLWFLAKQKNKRPGEVLFIDARKLGTNISRVQIELLDSDIESIAQTVANWRGVPLEVDGEIAEYADVAGFCRSVPLAEIAEHGHVLTPGRYVGAEAVEDDDEAFADKMQDLTALLGEQLAKGTELDQLIRHKLGGLGYEEGHHHHHH”, the “soluble on expression in E. coli” value was “soluble”. For “MSLSVSLVYRKARPDDWKGILELYNSLSDDDLYLRFFTFHKLTEEEARKIADTKEHYTVIAEINGKIVGEASIYFDGEFAVVVHPDYRRLGIGTELVKRLIEFAKKNGIKKVRFYTLPENYPMIKIGKKLGFKIIEREDEVYAYLDLTNENVILEKT”, the “soluble on expression in E. coli” value was “soluble”. For “MSLSYLPLDEYQRKWIFTHQSMPVPEEDLAQIKPMSQARSAQFWKENISAQSPDMDRLSSQDWPMKESNWSETVDWMAAWESDEPNMPTEVETHIDWQDDVTVYFCYEKYNVIETKWSIFKKHWKNFLFYDDGPMLLGRRRAQALWFDSKGNVKLGERHEGHHHHHH”, the “soluble on expression in E. coli” value was “soluble”. For “MSLTAERQERLLARVEDAFGVISVYEVDDYRFLEFGDAIEQSCVFTADPSWLEYDYTRAMLVGALCHESPESALFLGLGAGTLTQACMKFLPLEDIEAIELRPDVPRLAMDYLGLDDDPRLYVRIGDALELLPTAEKADLLFVDLYTDHGPGVGHLAWNFLENCQQHLNPGGWLVINQWATDDGRPLGAALLRGLYHRHYWELPVKEGNVILLVPADLEQSLDLDGLRARAEALAPRLGYSLDGLIREIRPATEGHHHHHH”, the “soluble on expression in E. coli” value was “soluble”. With “MSLTAHRIGFLVWPGTKAMTLALAEEALRVAQRVHPEVVYELSFLQAELAEPAAVAGGWQLPGEPWTGRLEGLQKLFLLADEPPAAVAPALGSALKQLVRAGCSIGGLSAGVYPLAQLGLLDGYRAAVHWRWQDDFAERFPKVIATSHLFDWDRDRLTACGGMSVLDLLLAVLSRDHGAELAGAVSEELVVERIREGGERQRIPLQNRLGSSHPKLTQAVLLMEANIEEPLTTDEIAQHVCVSRRQLERIFKQYLNRVPSQYYLELRLNKARQMLMQTSKSIIQIGLSCGFSSGPHFSSAYRNFFGATPREDRNQRRSSSPFELSPVPAKGIITITTDPNSSSVDKLAAALEHHHHHH” the “soluble on expression in E. coli” value was “soluble”. With “MSLTAIKHVAISCRRALTKCAKIGHTTVSVSRSLRKLSPTAFKTLRQAIAKVGHLNIMGQKIRLNDRELAANKVIMAVKKEEISKGILDPSQFTPGQHIFKTLAEVQKSPIFNLIKGMPKGGALHAHDTALCSTDYLISLTYRKNLWICTAEEGCKAIAFRFSKEEPKEKPVKESIWEPMEEFRERRGEENVTKYLTRRFSMYPFSKFISNNQAWAHFMGIFILLDGLLCHAPIWAEYYYNALKEFAEDGVQYLELRSLLPPLYCIDGDMLTIRDTVAIYNSELERFRADHPDFIGSKLIYAPLRGVEPSVVEQYVKTAVELNKEFPNFMVGFDLVGQEELGRPLIDFVEPLLKMPEHINFYFHAGETNWFGSPIDENLVDAILLGTKRIGHGYALTKHPMMMRLAKLLGIAIEVCPVSNQVLQLGVDYRNHPAALLLAANVPIVISSDDPSFWHCAPLSHDFYFAFLGIAPMKADLRFLKSLAINSIRYSALVGEEKRVGYRKWQEKWDKWIDDVVEHKYCEGHHHHHH” the “soluble on expression in E. coli” value was “not soluble”. For “MSLTANRDKFRPVYHHTPLYGWMNDANGLVYKDGEYHLYFQYNPYGSVWGNMHWGHSVSKDLVHWEHLDPAIARDTLGHIFSGSAIVDKHNSAGYGENTIVAFYTSHRNIPSGQSQVQSMAYSTDNGRTYTKYEQNPVLTPFDGLQNFRDPKVFWYEPEQKWIMIVSADKNMRFYSSANLKQWEYMSEFGEGFGPQPNQFECPDFIQLPVDGDRTRMKWVMIVNINPGFVYGGSGTMYFTGDFDGHQFVCDTKPEVVKWLDWGKDHYATVCFSNTGDRVIAVPWMSNWQYANYTPIQQFRSANALPRELSLYTGEDKQLYLSAAPVKETEHLRKDSKKLDDFTVNGEKRLETLFENNDGAFELELQLVSAGKEAGFELLNSLGEKVKIYLDASEGRVVMDRAESGIVDFGKKVKPHDLDTEESYARYKEVTVNYKNDFALGTWAPINTAKAHKIQVFVDNGSVELFVDGGRVAMTNLVFPNEPYNSLRFYSKGGEMKISNFTIYKLGLEGHHHHHH”, the “soluble on expression in E. coli” value was “soluble”. With “MSLTDAKHGETIQGPMSYGHWIAGRETHSGGASFPSHNPTTGAEWGRFALGSQDTVGDAVAAATAAFEGAEWSSLSPTRRGRLMMRWGDAIAQHAEKLGALETSQNGKLLSEMVLQARIVPDWLYYYGGLADKIEGRVIPVERRSVLNYTRREALGVVGVIMPWNSPLFLTTMAVAPALAAGNTVVIKPSEVSSASIIEAVKLAEQIGFPRGVLNVVTGGRETAEALIDHCGVAKIAFTGGVEAGRAVGVRAARRMAQVTLELGGKSANIVFPDADLAQARAGLLAGIFAAAGQTCVAGSRAFVHRSIHDRLLAELAERAKNIRIGNPLDPATQMGPVATKAQLDKDESMVRRAIDEGAQVVHGGCRAAVDGFPGGYFYTPTILTGVSPGSYIAQNEVFGPVLSVIPFDDEDEVIALANGTGFGLAAGIWSLNIRQAHRVANQLQAGTVWVNMYRAMSFNSPFGGYKASGIGRQNGIEAIDSYLQTKSIWCELSQEEGHHHHHH” the “soluble on expression in E. coli” value was “not soluble”. With “MSLTDIKMIALGGVREYGKNFYLVEINDSMFILDAGLKYPENEQLGVDLVIPNLDYVIENKGKVQGIFLSHGHADAIGALPYLLAEVSAPVFGSELTIELAKLFVKSNNSTKKFNNFHVVDSDTEIEFKDGLVSFFRTTHSIPESMGIVIGTDKGNIVYTGDFKFDQAAREGYQTDLLRLAEIGKEGVLALLSDSVNATSNDQIASESEVGEEMDSVISDADGRVIVAAVASNLVRIQQVFDSATAHGRRVVLTGTDAENIVRTALRLEKLMITDERLLIKPKDMSKFEDHELIILEAGRMGEPINSLQKMAAGRHRYVQIKEGDLVYIVTTPSTAKEAMVARVENLIYKAGGSVKLITQNLRVSGHANGRDLQLLMNLLKPQYLFPVQGEYRDLAAHAKLAEEVGIFPENIHILKRGDIMVLNDEGFLHEGGVPASDVMIDGNAIGDVGNIVLRDRKVLSEDGIFIVAITVSKKEKRIISKAKVNTRGFVYVKKSHDILRESAELVNTTVGNYLKKDTFDWGELKGNVRDDLSKFLFEQTKRRPAILPVVMEVREGHHHHHH” the “soluble on expression in E. coli” value was “soluble”. With “MSLTDKPQAEVIAVYPNKVKICVDDLGSFTEGHPLLRVGSYLRVTDHEDCILIAIIESFLIEVDDRKNRRHVIEALPLGVIKDDKFIRGGDALTIPPTGVAPATIQDIKKIFEDSVPTNRKFEFSSLVTDPDIRVPVDGNRFFNKHIAVVGSTGAGKSNTVTRIIQTSTTKTPSGTQNNSHAIIFDIHSEYKAAFPHANHIDINSLNLPYWLLNSDELEEVLLDTGERDNYNQSSVFRYLVTENKKKHNEGHHHHHH” the “soluble on expression in E. coli” value was “not soluble”. For “MSLTEDVTSQTSESLARHSVLAEDLSQDGLTSLGAPGARVLLVWDAPNLDMGLGSILGRRPTALERPRFDALGRWLLARTAEIVAGRPGISTEPEATVFTNIAPGSAEVVRPWVDALRNVGFAVFAKPKVDEDSDVDRDMLAHIDERYREGLAALVVASADGQAFRQPLEAVARSGTPVQVLGFREHASWALASDTLEFVDLEDIAGVFREPLPRIGLDSLPEQGAWLQPFRPLSSLLTSRV”, the “soluble on expression in E. coli” value was “soluble”.
